# Reference: article PMC9094124
# Assays:
# [1] = target: c-JO4 (cGMP-compliant JO4 junction opener protein) (human adenovirus serotype 3); test: SEC + other: negative-stain electron microscopy; SEC on Superdex 200 Increase 10/300 in TBS, 1 mL/min; EM with 1% sodium silicotungstate pH 7.0, protein at 0.1 mg/ml
# [2] = target: c-JO4 (cGMP-compliant JO4 junction opener protein) (human adenovirus serotype 3); test: SDS-PAGE, not boiled and not reduced; 4-15% gradient gel, running buffer with 0.1% SDS, 1 ug protein, sample not boiled and not reduced
substance,measurement,setting,value
c-JO4 (cGMP-compliant JO4 junction opener protein) (domain or fragment),stoichiometry N,[1],6
same,stoichiometry N,[2],3
